Measurements from patent US12187807B2, “Antibody molecules to C5AR1 and uses thereof” (Visterra, Inc., priority 2020, dated 2025).

T1: C5aR1 mutants (N-terminus, ECL1, ECL2, ECL3) (Homo sapiens, UniProt P21730, K17N/K279N)
T1 sequence (P21730 with tags, fused parts or gaps K17N/K279N): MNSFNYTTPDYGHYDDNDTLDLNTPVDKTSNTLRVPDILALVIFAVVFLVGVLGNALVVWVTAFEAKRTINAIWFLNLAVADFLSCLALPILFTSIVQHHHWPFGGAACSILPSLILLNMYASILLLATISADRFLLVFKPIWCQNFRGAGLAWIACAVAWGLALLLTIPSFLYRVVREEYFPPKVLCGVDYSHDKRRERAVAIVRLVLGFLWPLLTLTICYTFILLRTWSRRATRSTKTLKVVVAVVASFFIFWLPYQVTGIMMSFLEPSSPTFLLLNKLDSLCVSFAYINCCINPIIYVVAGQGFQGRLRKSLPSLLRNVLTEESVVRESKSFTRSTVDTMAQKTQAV

T2: C5aR1 mutants (N-terminus, ECL1, ECL2, ECL3) (Homo sapiens, UniProt P21730, K279N/T8A)
T2 sequence (P21730 with tags, fused parts or gaps T8A/K279N): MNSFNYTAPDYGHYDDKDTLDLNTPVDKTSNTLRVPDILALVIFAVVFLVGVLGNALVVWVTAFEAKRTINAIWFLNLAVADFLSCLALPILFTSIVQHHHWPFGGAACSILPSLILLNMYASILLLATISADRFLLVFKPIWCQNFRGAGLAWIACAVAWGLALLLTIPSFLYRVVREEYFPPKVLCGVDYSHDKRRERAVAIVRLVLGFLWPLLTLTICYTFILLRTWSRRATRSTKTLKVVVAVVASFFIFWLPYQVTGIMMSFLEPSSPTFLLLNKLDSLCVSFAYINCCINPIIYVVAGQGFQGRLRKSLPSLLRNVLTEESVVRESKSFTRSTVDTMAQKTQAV

T3: C5aR1 mutants (N-terminus, ECL1, ECL2, ECL3) (Homo sapiens, UniProt P21730, K279N/Y11A)
T3 sequence (P21730 with tags, fused parts or gaps Y11A/K279N): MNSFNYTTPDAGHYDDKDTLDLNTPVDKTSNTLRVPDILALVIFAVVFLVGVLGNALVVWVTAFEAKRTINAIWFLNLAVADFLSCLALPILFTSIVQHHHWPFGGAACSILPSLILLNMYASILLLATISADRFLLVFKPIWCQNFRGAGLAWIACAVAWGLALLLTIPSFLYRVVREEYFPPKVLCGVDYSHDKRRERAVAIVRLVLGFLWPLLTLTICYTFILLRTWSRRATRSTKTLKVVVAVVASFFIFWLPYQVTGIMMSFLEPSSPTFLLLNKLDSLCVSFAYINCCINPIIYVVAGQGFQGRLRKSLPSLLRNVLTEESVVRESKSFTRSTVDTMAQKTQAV

T4: C5aR1 mutants (N-terminus, ECL1, ECL2, ECL3) (Homo sapiens, UniProt P21730, G12E/K279N)
T4 sequence (P21730 with tags, fused parts or gaps G12E/K279N): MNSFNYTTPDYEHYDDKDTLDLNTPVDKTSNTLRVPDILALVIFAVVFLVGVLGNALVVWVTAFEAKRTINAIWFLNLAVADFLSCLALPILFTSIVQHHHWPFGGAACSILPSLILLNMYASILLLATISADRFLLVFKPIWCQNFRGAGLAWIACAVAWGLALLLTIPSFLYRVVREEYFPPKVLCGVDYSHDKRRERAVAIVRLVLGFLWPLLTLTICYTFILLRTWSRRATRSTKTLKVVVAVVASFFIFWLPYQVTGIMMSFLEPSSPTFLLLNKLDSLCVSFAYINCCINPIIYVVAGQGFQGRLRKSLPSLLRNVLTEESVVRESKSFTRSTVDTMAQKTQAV

T5: C5aR1 mutants (N-terminus, ECL1, ECL2, ECL3) (Homo sapiens, UniProt P21730, K279N/Y14F)
T5 sequence (P21730 with tags, fused parts or gaps Y14F/K279N): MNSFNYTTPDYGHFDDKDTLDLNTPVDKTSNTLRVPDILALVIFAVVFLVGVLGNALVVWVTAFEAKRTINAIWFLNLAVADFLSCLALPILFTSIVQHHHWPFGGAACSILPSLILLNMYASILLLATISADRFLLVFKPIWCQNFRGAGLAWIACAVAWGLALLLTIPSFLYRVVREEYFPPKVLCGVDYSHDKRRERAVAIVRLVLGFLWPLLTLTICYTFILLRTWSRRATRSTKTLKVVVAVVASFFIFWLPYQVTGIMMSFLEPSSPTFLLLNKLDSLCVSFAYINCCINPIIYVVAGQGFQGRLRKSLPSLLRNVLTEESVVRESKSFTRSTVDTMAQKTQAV


Tests used:
Assay in all cases: Alanine scanning / mutagenesis epitope mapping of C5aR1
Type in all cases: binding
[1] = target: T1, C5aR1 mutants (N-terminus, ECL1, ECL2, ECL3); conditions: insertion of a glycan at K17N
Text: (§1) FIG. 5A is a diagram showing the results of alanine scanning mutations of site I interaction with mab 583. The N-terminal amino acid sequence of C5aR1 is listed across the top of the figure. Glycosylation sites are indicated by rectangle boxes. The only natural glycosylation site is at position N5. The other sites were introduced by mutagenesis. Mutations that abolished clone 583 binding are circled. The sulfated tyrosines at positions 11 and 14 are marked with a star sign. FIG. 5B is a diagram showing results of alanine scanning mutations of site I interaction with mab 66. Mutations that abolished clone 66 binding are circled. The sulfated tyrosines at positions 11 and 14 are marked with a star sign.
(§2) Ala substitutions of T8 & D10 moderately reduces its affinity while Y11 & D15 abolishes mAb binding. […] N-glycosylation of at N17 or D17P also abolishes mAb binding. N5 glycan is tolerated but a tandem glycosylation (N5 & N17) is not tolerated. mAb core epitopes are T8-G12 but nature of AA present in D15-D18 influence its binding. […] The core epitope appears to be located near T8-G12, with additional contributions from D15-D18.
(§3) Clone 66 was previously characterized as a site I binder and its binding is dependent on tyrosine sulfation at positions 11Y and/or 14Y. […] It should be noted that the only the only non-human species to retain clone 66 binding was baboon, which is the only NHP that retains the DYGHY motif.
(§4) However, it was unknown if additional contacts were made with ECL1 or ECL3. […] The data is highlighted in FIG. 5C-5E.
(§5) The core epitope of clone 11 is from E180-P183; the core epitope of clone 329 is from E180-P184; and the core epitope of clone 336 is from R178-P183. […] The data for clones 11, 329, and 336 is highlighted in FIG. 5F.

[2] = target: T2, C5aR1 mutants (N-terminus, ECL1, ECL2, ECL3); conditions: T8A
Text: as §1, §2, §3, §4, §5

[3] = target: T3, C5aR1 mutants (N-terminus, ECL1, ECL2, ECL3); conditions: Y11A
Text: as §1, §2, §3, §4, §5

[4] = target: T4, C5aR1 mutants (N-terminus, ECL1, ECL2, ECL3); conditions: G12E (as in cyno and rhesus)
Text: as §1, §2, §3, §4, §5

[5] = target: T5, C5aR1 mutants (N-terminus, ECL1, ECL2, ECL3); conditions: Y14F
Text: as §1, §2, §3, §4, §5

Row | Molecule | binding to C5aR1 mutant [1] | binding to C5aR1 mutant [2] | binding to C5aR1 mutant [3] | binding to C5aR1 mutant [4] | binding to C5aR1 mutant [5]
1 | clone 583: anti-C5aR1 Site I antibody; VH SEQ ID NO: 536, VL SEQ ID NO: 595 (antibody, V domains shown) VH: EVQLVESGGGLVKPGGSLKLSCAASGFTFNAYAMSWVRQTPEKRLEWVASISTGGNTYCPDSVKDRFTVSRDNVRNILYLQMSSLRSEDTAMYYCTRGYQRFSGFAYWGQGTLVTVS VL: DVVMTQTPLSPPVSLGYQASISCRSSQSLVHSNGNTYLNWYLQKPGQSPKLLIYKVSNRLSGVPDRFSGSGSGTDFTLKISRVETEDLGVYFCSQSTHVPYTFGGGTKLEIK | abolishes binding | moderately reduce binding | abolishes binding | – | –
2 | clone 66: anti-C5aR1 Site I antibody; VH SEQ ID NO: 483, VL SEQ ID NO: 543 (antibody, V domains shown) VH: QVQLQQSDAELVKPGASVKISCKASGYTFIDHAIHWVKQRPEQGLEWIGYISPGNGEIKYNEKFKAKATLTADKSSSAAYMQLNSLTSADSAVYFCKRALFYYTGKYQPMDYWGQGTTVTDSS VL: DIVMTQSQKFMSTTAGDRVSITCKASQNVGSAVVWYQQKPGRSPKLLIYSSSIRYTGVPDRFTGSGSGTDFTLTINSVQSEDLADYFCQQYNSFPLTFGAGTKLEIK | – | – | – | abolishes binding | abolished binding
